In paper PMC1781754 (2000) one finds Ki data, which are given here for 2 molecules.

In this assay the target is T1, IL-5 receptor alpha/beta (Homo sapiens, UniProt Q01344).
T1 chain 1: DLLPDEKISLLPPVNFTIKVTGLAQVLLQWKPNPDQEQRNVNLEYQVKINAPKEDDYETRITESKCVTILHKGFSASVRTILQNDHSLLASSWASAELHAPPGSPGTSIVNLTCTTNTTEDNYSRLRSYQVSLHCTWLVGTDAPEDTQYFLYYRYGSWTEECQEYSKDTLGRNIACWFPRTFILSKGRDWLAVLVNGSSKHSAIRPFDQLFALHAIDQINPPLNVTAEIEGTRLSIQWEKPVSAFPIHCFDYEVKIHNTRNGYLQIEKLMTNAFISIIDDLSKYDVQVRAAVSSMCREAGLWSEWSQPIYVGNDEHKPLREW
T1 chain 2: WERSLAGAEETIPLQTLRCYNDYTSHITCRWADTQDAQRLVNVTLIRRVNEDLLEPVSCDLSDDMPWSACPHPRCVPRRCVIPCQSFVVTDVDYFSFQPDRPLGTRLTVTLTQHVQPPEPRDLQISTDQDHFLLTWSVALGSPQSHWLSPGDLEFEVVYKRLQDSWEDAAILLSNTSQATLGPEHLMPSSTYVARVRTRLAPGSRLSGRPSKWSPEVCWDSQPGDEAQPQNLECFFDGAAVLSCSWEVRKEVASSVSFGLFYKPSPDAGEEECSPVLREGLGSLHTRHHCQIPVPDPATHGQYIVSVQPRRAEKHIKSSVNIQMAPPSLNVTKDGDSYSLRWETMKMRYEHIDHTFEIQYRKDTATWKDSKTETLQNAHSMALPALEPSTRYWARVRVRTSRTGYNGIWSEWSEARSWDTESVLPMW
Nature of the assay: radioligand displacement.

B1: IL-5 (protein)
chain: IPKQSATLRALVRETLTLLSTHRTLLKGNETLRISVPAHKNHQLCIEEIFQGIDTLKNQTTQGEALATLFQNLSLIKKHIDLQKQKCGEERRRVKQFLDYLQEFLAVINTEWTIEG
The molecule B1 yielded a Ki of 0.75 nM.

B2: IL-5 (protein)
chain: MEIPMSTVVKETLTQLSAHRALLTSNETMRLPVPTHKNHQLCIGEIFQGLDILKNQTVRGGTVEMLFQNLSLIKKYIDRQKEKCGEERRRTRQFLDYLQEFLGVMSTEWAMEG
Molecule B2 had an inhibition constant (Ki) of 0.17 nM.

One may read the Ki as the dissociation constant of the complex between target and ligand, obtained from inhibition or displacement. Low readings indicate higher affinity, high ones lower affinity.
